Assay results as given in paper PMC8265671.

Molecular target: FLAG-tagged TgMLC1 C(8,11)S (Toxoplasma gondii)
Test: co-IP; anti-FLAG M2 affinity resin, Triton X-100 extract of parasites in FLAG lysis buffer (10 mM imidazole pH 7.4, 300 mM NaCl, 1 mM EGTA, 5 mM MgCl2, 1% TX-100, 2 mM DTT, 2 mM ATP), overnight at 4°C, eluted with FLAG peptide, quantitative Western blotting

Substance | fold increase in the amount recovered, against WT TgMLC1 [fold]
TgELC1 (Toxoplasma gondii essential light chain 1) (natural protein) | 2 to 3
TgMyoA (Toxoplasma gondii class XIVa myosin heavy chain) (from UniProt O00934 1-831) | 2 to 3
